Experimental findings from patent publication US20140179593A1 (published 2014) are described below.

Like-named read-outs stand apart in the source and are kept apart here. Positions of bridges follow the written chain, without caps; N, C: chain ends. Non-standard residues stand in square brackets, D forms with d. S5 = C=CCCC[C@](C)(N)C(=O)O; Nle = CCCC[C@H](N)C(=O)O

In assay [1] the target is T1, hDcn3^P (PONY domain of human DCUN1D3) (Homo sapiens, UniProt Q8IWE4 86-304).
T1 sequence: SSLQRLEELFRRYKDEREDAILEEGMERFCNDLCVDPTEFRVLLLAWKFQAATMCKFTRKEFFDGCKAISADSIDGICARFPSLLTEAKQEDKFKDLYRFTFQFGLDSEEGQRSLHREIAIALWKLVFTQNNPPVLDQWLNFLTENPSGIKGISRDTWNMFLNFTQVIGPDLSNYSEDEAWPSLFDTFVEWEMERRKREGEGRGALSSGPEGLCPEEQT
Put plainly: ITC, peptide titrated into Dcn PONY domain. As for the experimental part:
(§1) Protein samples were buffer matched by desalting over a NAP-5 column (GE Healthcare) into 50 mM Hepes, 125 mM NaCl, 1 mM BME, pH 7.0 (ITC buffer). Peptides were dissolved by weight to a final concentration of 10 mM in ITC buffer and diluted further in ITC buffer as required for the experiments. […] The peptide ligands (4 mM) were constantly injected (1.5 μl). The interval time between each injection was 3 minutes and the duration of each injection was 3 seconds. […] Peptide ligands (250 μM) were constantly injected (2.5 μl). The interval time between each injection was three minutes and the duration of each injection was 5 seconds. […] The interval time between each injection was 3 minutes and the duration of each injection was 5 seconds. Obtained spectra were evaluated using Origin (V 7.0) to determine heats of binding and Kd values.
For orientation: In ITC the heat of successive injections is recorded.

The target in assay [2] is T2, hDcn4^P (PONY domain of human DCUN1D4) (Homo sapiens, UniProt Q92564 102-292).
T2 sequence: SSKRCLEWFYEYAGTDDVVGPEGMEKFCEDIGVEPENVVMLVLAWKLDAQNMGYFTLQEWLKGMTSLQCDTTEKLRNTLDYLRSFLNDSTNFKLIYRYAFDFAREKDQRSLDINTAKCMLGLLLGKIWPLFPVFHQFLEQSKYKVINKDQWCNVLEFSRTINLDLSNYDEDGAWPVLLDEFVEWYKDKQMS
Briefly: ITC, peptide titrated into Dcn PONY domain. As to the method: as §1

Assay [3] concerns the target T3, hE1 for Nedd8 (APPBP1-UBA3, NAE1-UBA3) (Homo sapiens, UniProt Q13564 18-534; Q8TBC4 22-463, limits assumed).
T3 construct: Heterodimeric E1 expressed in E. coli as described in earlier publications
T3 sequence 1: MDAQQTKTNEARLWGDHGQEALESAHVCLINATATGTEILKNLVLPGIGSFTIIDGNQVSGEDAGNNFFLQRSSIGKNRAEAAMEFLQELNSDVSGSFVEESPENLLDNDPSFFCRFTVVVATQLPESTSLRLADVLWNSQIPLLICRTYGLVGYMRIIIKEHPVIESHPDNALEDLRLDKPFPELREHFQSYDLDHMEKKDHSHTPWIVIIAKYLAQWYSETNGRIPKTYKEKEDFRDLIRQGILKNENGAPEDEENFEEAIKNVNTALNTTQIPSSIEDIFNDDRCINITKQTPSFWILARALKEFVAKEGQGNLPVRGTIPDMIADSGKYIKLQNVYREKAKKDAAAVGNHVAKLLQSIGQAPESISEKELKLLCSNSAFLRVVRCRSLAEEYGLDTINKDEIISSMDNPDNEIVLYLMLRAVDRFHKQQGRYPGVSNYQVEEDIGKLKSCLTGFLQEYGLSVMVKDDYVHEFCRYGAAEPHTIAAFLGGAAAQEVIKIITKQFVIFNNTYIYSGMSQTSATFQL
T3 sequence 2: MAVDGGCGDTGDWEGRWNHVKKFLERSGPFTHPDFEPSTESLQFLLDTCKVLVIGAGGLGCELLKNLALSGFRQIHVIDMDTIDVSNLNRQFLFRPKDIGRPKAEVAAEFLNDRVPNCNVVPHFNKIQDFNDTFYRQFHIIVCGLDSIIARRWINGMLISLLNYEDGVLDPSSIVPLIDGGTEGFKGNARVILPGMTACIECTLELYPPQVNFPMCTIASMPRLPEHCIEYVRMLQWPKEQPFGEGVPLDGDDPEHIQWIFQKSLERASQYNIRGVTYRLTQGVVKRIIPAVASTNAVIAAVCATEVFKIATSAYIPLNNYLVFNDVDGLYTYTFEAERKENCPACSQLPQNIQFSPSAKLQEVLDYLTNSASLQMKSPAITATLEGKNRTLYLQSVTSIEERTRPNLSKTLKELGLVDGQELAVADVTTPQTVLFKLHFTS
Briefly: ITC, peptide titrated into hE1. As to the method: (§2) Specifically, Phe5 and Gln9 were replaced with (S)-2-(4′-pentenyl) alanine and these side-chains were covalently linked to test the effect of “stapling” an acetylated Ubc12 peptide into a helix (Bird et al. (2008) Methods Enzymol 446:369-386).
as §1

For assay [4], the target named is T4, hDcn1^P (PONY domain of human Dcn1 / DCUN1D1 / SCCRO, residues 62 to 259) (Homo sapiens, UniProt Q96GG9 62-259).
T4 construct: NEDD8 co-E3; Expressed as a GST fusion in E. coli; GST was removed with TEV protease; also called DCUN1D1^P
T4 sequence (Q96GG9 62-259): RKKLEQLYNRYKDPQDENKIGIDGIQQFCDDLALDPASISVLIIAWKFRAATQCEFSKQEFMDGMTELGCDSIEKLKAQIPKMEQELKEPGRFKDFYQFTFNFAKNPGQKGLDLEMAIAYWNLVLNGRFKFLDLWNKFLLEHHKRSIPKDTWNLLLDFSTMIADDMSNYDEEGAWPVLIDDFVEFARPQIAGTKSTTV
Briefly: ITC, peptide titrated into hDcn1^P. As for the experimental part: as §2, §1

In assay [5] the target is yDcn1^P (potentiating neddylation / PONY domain of Saccharomyces cerevisiae Dcn1) (Saccharomyces cerevisiae) (UniProt Q12395). Briefly: ITC, peptide titrated into yDcn1^P.
Assay [6] deals with T5, yE1 for yNedd8 (Ula1-Uba3) (Saccharomyces cerevisiae, UniProt Q12059 1-462, limits assumed).
T5 construct: Heterodimeric E1 expressed in E. coli as described in earlier publications
T5 sequence 1: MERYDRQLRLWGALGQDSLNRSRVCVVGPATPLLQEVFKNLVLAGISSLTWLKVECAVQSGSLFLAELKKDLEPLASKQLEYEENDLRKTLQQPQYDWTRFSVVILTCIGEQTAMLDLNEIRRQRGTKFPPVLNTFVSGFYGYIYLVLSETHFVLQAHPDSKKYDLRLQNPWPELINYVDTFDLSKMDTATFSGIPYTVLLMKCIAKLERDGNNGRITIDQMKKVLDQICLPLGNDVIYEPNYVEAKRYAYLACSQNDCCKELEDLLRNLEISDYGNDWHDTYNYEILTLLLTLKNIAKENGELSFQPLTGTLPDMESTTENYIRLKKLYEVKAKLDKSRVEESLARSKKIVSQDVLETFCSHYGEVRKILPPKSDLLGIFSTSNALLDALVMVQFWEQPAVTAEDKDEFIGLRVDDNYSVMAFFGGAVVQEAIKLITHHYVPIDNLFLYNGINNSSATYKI
T5 sequence 2: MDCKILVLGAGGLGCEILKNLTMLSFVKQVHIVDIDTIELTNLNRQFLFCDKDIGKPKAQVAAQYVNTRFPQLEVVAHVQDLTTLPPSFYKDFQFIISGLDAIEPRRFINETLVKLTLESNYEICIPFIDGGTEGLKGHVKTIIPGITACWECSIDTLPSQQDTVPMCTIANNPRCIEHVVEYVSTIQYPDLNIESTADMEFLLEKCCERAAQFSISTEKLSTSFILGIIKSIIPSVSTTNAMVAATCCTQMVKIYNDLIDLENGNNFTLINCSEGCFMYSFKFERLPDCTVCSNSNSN
Briefly: ITC, peptide titrated into yE1. As for the experimental part: (§3) To gain insights into mechanistic roles of Ubc12 N-terminal acetylation, isothermal titration calorimetry (ITC) was used to quantify interactions with peptides corresponding to the N-termini of yeast or human Ubc12.
as §1

Assay [7] concerns the target hDcn1^P (PONY domain of human Dcn1 / DCUN1D1 / SCCRO, residues 62 to 259) (Homo sapiens) (UniProt Q96GG9). Put plainly: ITC, peptide titrated into hDcn1^P.
For assay [8], the target named is T3, hE1 for Nedd8 (APPBP1-UBA3, NAE1-UBA3). Put plainly: ITC, peptide titrated into hE1. As for the experimental part: as §3, §1
The source holds these as a separate data set.

Assay [9] has as its target T6, hDcn1^P (potentiating neddylation / PONY domain of human Dcn1, DCUN1D1) (Homo sapiens, UniProt Q96GG9 62-259).
T6 construct: also called DCUN1D1^P; SCCRO PONY domain
Put plainly: ITC, peptide titrated into Dcn PONY domain. As to the method:
as §1

Assay [10] addresses hDcn2^P (PONY domain of human DCUN1D2) (Homo sapiens, UniProt Q6PH85 62-259). Put plainly: ITC, peptide titrated into Dcn PONY domain. As for the experimental part: as §1
For assay [11], the target named is T7, hDcn5^P (PONY domain of human DCUN1D5) (Homo sapiens, UniProt Q9BTE7 47-237).
T7 sequence: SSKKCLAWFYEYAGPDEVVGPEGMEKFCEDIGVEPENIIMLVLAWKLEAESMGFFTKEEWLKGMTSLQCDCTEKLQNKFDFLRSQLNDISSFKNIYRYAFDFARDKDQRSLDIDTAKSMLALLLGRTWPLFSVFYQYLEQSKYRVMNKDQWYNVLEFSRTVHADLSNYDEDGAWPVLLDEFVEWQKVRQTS
Put plainly: ITC, peptide titrated into Dcn PONY domain. As for the experimental part: as §1

hDcn1^P (PONY domain of human Dcn1 / DCUN1D1 / SCCRO, residues 62 to 259) (Homo sapiens), sequence (Q96GG9 62-259): as the sequence (Q96GG9 62-259) above
hDcn2^P (PONY domain of human DCUN1D2), sequence (Q6PH85 62-259 limits assumed): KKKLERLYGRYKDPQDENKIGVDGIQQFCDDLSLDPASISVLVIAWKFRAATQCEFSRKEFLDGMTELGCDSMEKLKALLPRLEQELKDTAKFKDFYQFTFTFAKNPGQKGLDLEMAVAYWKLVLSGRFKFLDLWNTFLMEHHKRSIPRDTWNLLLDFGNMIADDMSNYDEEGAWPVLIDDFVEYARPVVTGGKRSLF
T6 sequence (Q96GG9 62-259): as the sequence (Q96GG9 62-259) above

For Ac-MIKLFSLKQQKK-NH2 (also called Acetyl-hUbc12^1-12) [hUbc12^Ac1-12], the Kd was found to be 6300 nM in assay [1] and 13100 nM in assay [2].

B1: Acetyl-hUbc12^1-12(5:9Staple) peptide (peptide)
peptide: Ac-MIKL[S5]SLK[S5]QKK-NH2
modifications: staple 5-9
notes: Printed as Ac-MIKLXSLKXQKK-NH2, X = 2-(4-pentenyl)alanine; Phe5 and Gln9 are replaced
Turning to B1, the binding result in assay [3] was “no binding”. Besides, in assay [4], the Kd stood at 150 nM, the ΔH is -3.39 kcal/mol and the ΔS was 19.3 cal/mol/deg.

B2: yUbc12^1-24 peptide (free N-terminus) (peptide)
peptide: H-MLKLRQLQKKKQKENENSSSIQPN-NH2
notes: Synthetic peptide, N-terminal extension of yeast Ubc12
Turning to B2, in [5], the N (stoichiometry) was found to be 1.16, the ΔH came out at 3.78 kcal/mol and the ΔS amounted to 33.4 cal/mol/deg. Also, in assay [6], the dissociation constant (Kd) is 70 nM, the “N (stoichiometry)” value is 1.05, the ΔH is -8.57 kcal/mol and the ΔS stood at 2.65 cal/mol/deg.

B3: hUbc12^1-26 peptide (free N-terminus) (peptide)
peptide: H-MIKLFSLKQQKKEEESAGGTKGSSKK-NH2
notes: Synthetic peptide, N-terminal extension of human Ubc12 (UBE2M)
Consider B3, for which, in assay [7], the N (stoichiometry) is 0.75, the ΔH was 1.26 kcal/mol and the ΔS came to 22.2 cal/mol/deg. Besides, in assay [8], the affinity, expressed as Kd, was 585 nM; the “N (stoichiometry)” value was found to be 1.29; the ΔH was -8.88 kcal/mol; the ΔS is -1.99 cal/mol/deg.

B4: Acetyl-hUbc12^1-12 peptide (peptide)
peptide: Ac-MIKLFSLKQQKK-NH2
notes: Synthetic control peptide for the stapled peptide; also called hUbc12^Ac1-12
On to B4, for which, in assay [3], binding was put at a Kd of 630 nM, the ΔH is -11.5 kcal/mol and the ΔS is -11 cal/mol/deg. In assay [4], this molecule had a ΔH of -4.99 kcal/mol and a ΔS of 8.79 cal/mol/deg.

B5: yUbc12^Ac1-12 (NorLeu) 6, 10 (peptide)
peptide: Ac-[Nle]LKLR[S5]LQK[S5]KQ-NH2
modifications: staple 6-10
SMILES: CCCC[C@H](NC(C)=O)C(=O)N[C@@H](CC(C)C)C(=O)N[C@@H](CCCCN)C(=O)N[C@@H](CC(C)C)C(=O)N[C@@H](CCCNC(=N)N)C(=O)N[C@@]1(C)CCCC=CCCC[C@@](C)(C(=O)N[C@@H](CCCCN)C(=O)N[C@@H](CCC(N)=O)C(N)=O)NC(=O)[C@H](CCCCN)NC(=O)[C@H](CCC(N)=O)NC(=O)[C@H](CC(C)C)NC1=O
In the case of B5, the Kd was 68 nM in assay [9]; 75 nM in assay [10]; 1760 nM in [1]; 4300 nM in assay [2]; 4780 nM in assay [11].

B6: hUbc12^Ac1-26 (peptide)
peptide: Ac-MIKLFSLKQQKKEEESAGGTKGSSKK-NH2
notes: Synthetic peptide of the N-terminus of human Ubc12; also called Acetyl-hUbc12^1-26
As to B6, the equilibrium dissociation constant (Kd) in assay [9] turned out to be 1500 nM; in [10], 735 nM; in assay [1] it was 10800 nM; in [2] it was 10000 nM; in assay [11], 8600 nM.

The Kd is the free concentration of one partner at which half of the binding sites on the other are occupied at equilibrium, for simple one-to-one binding.
